B1: TMPRSS4 Ab66 scFv (VH-VL) (scFv)
scFv: QVQLVQSGAEVKKPGSSVKVSCKASGGTFSSYAISWVRQAPGQGLEWVGGIMPIFGTANYAQKFQGRVTITADESPSTAYMELSSLRSEDTAVYYCATGRRELLNWGQGTLVTVSSGGGGSGGGGSGGGGSEIVMTQSPATLSVSPGERATLSCRASQSVNSRFLAWYQQKPGQAPRLLIYGASTRATGIPARFSGSGSGTEFTLTISSLQSEDFAVYYCMQGTHWPYTFGQGTKVEIK
notes: on monoclonal phage in the screen
B2: TMPRSS4 Ab52 scFv (VH-VL) (scFv)
scFv: QVQLVQSGAEVKKPGASVKVSCKASGYTFTRYYIHWVRQAPGQGLEWMGWMNPNSGNTGFAQKLQGRVTMTRDTSTSTVYMELSSLRSEDTAVYYCARGPFPRGRLDLWGQGTLVTVSSGGGGSGGGGSGGGGSDIQMTQSPSSLSASVGDRVTITCRASQGISRWLGWYQQKPGKAPKLLIYGASNLQTGVPSRFSGSGSGTDFTLTISSLQPEDFATYYCQQSYSSPRTFGQGTKVEIK
notes: as for B1
B3: TMPRSS4 Ab62 scFv (VH-VL) (scFv)
scFv: QVQLVQSGAEVKKPGASVKVSCKASGYTFTDYYIHWVRQAPGQGLEWMGWISTYNGNTNYAQKLQGRVTMTRDTSTSTVYMELSSLRSEDTAVYYCARGMVRGMDVWGQGTMVTVSSGGGGSGGGGSGGGGSDIVMTQSPDSLAVSLGERATINCKSSQSVLYSSNNKNYLAWYQQKPGQPPKLLIYWASTRESGVPDRFSGSGSGTDFTLTISSLQAEDVAVYYCQQYYTTPWTFGQGTRLEIK
notes: as for B1
B4: TMPRSS4 Ab61 scFv (VH-VL) (scFv)
scFv: QVQLVQSGAEVKKPGASVKVSCKASGYTFTNYYMHWVRQAPGQGLEWMGWMNPNSGNTGYAQNLQGRVTMTRDTSTSTVYMELSSLRSEDTAVYYCARGRTWFRSGMDVWGQGTTVTVSSGGGGSGGGGSGGGGSEIVMTQSPATLSVSPGERATLSCRASQSVSSYLAWYQQKPGQAPRLLIYGASTRATGIPARFSGSGSGTEFTLTISSLQSEDFAVYYCQQYDISVTFGPGTKVDIK
notes: as for B1
B5: TMPRSS4 Ab5 scFv (VH-VL) (scFv)
scFv: QVQLVQSGAEVKKPGSSVKVSCKASGYTFTSYYMHWVRQAPGQGLEWMGRIIPILGATDYAQKFQGRVTITADESTSTAYMELSSLRSEDTAVYYCARAGYSSIAARPAFWGQGTLVTVSSGGGGSGSGGGGSGGGGSEIVMTQSPATLSVSPGERATLSCRASQSVSSNLAWYQQKPGQAPRLLIYGASTRATGIPARFSGSGSGTEFTLTISSLQSEDFAVYYCQQYYSPFPLTFGGGTKVEIK
notes: as for B1
B6: TMPRSS4 Ab64 scFv (VH-VL) (scFv)
scFv: QVQLVQSGAEVKKPGASVKVSCKASGYTFTGYYMHWVRQAPGQGLEWMGMINPSGGGTTYAQKFQGRVTMTRDTSTSTVYMELSSLRSEDTAVYYCARDRRSMITFRTDYWGQGTLVTVSSGGGGSGGGGSGGGGSDIVMTQSPDSLAVSLGERATINCKSSQSVLYSSNNKNYLAWYQQKPGQPPKLLIYWASTRESGVPDRFSGSGSGTDFTLTISSLQAEDVAVYYCQQYYSTPYTFGQGTKLEIK
notes: as for B1
B7: TMPRSS4 Ab65 scFv (VH-VL) (scFv)
scFv: QVQLVQSGAEVKKPGASVKVSCKASGYTFTGYYMHWVRQAPGQGLEWMGWMNPNSGNTGYAQKFQGRVTMTRDTSTSTVYMELSSLRSEDTAVYYCAGRKWLGLDFYNWFDPWGQGTLVTVSSGGGGSGGGGSGGGGSDIVMTQSPDSLAVSLGERATINCKSSQSVLYSSNNKNYLAWYQQKPGQPPKLLIYWASTRQSGVPDRFSGSGSGTDFTLTISSLQAEDVAVYYCQQYYSTPWTFGQGTKVEIK
notes: as for B1
B8: TMPRSS4 Ab48 scFv (VH-VL) (scFv)
scFv: QVQLVQSGAEVKKPGASVKVSCKASGYTFTGYYLHWVRQAPGQGLEWMGWISAYNGNTNYAQNLQGRVTMTRDTSTSTVYMELSSLRSEDTAVYYCARHSYSGSYSTLPYYGMDVWGQGTTVTVSSGGGGSGGGGSGGGGSDIQMTQSPSSLSASVGDRVTITCRASQGISNYLAWYQQKPGKAPKLLIYTASTLFPGVPSRFSGSGSGTDFTLTISSLQPEDFATYYCQQSYSIPLTFGGGTKVEIK
notes: as for B1
B9: TMPRSS4 Ab50 scFv (VH-VL) (scFv)
scFv: QVQLVQSGAEVKKPGASVKVSCKASGYTFTGYYMHWVRQAPGQGLEWMGWINPNSGGTHYAQKFQGRVTMTRDTSTSTVYMELSSLRSEDTAVYYCARVRIGWLQSPPLYWGQGTLVTVSSGGGGSGGGGSGGGGSDIQMTQSPSSLSASVGDRVTITCRASQGISNYLAWYQQKPGKAPKLLIYATSRLQSGVPSRFSGSGSGTDFTLTISSLQPEDFATYYCQQSYKTPLTFGGGTKVEIK
notes: as for B1
B10: TMPRSS4 Ab54 scFv (VH-VL) (scFv)
scFv: QVQLVQSGAEVKKPGASVKVSCKASGYTFTSYYMQWVRQAPGQGLEWMGWMNPNSGNTGYAQKFQGRVTMTRDTSTSTVYMELSSLRSEDTAVYYCARVRIGWLQSPPLYWGQGTLVTVSSGGGGSGGGGSGGGGSDIQMTQSPSSLSASVGDRVTITCRASQGISNYLAWYQQKPGKAPKLLIYAASSLQSGVPSRFSGSGSGTDFTLTISSLQPEDFATYYCQQSYSIPFTFGPGTKVDIK
notes: as for B1
B11: TMPRSS4 Ab59 scFv (VH-VL) (scFv)
scFv: QVQLVQSGAEVKKPGASVKVSCKASGGTFSSYTLSWVRQAPGQGLEWMGWIHPKSGVTKNAQKFQGRVTMTRDTSTSTVYMELSSLRSEDTAVYYCARGWVYGRMDAWGQGTTVTVSSGGGGSGGGGSGGGGSEIVMTQSPATLSVSPGERATLSCRASQSVSSNYLAWYQQKPGQAPRLLIYGASTRATGIPARFSGSGSGTEFTLTISSLQSEDFAVYYCQQYGTLPYTFGQGTKVEIK
notes: as for B1
B12: TMPRSS4 Ab49 scFv (VH-VL) (scFv)
scFv: QVQLVQSGAEVKKPGASVKVSCKASGYTFTGYYMHWVRQAPGQGLEWMGRINPNSGGTNYAQKFQGRVTMTRDTSTSTVYMELSSLRSEDTAVYYCARERAGYSSGQFDYWGQGTLVTVSSGGGGSGGGGSGGGGSDIQMTQSPSSLSASVGDRVTITCRASQSISNWLAWYQQKPGKAPKLLIYAASTLQNGVPSRFSGSGSGTDFTLTISSLQPEDFATYYCQQSYTFPITFGQGTKVEIK
notes: as for B1
B13: TMPRSS4 Ab43 scFv (VH-VL) (scFv)
scFv: QVQLVQSGAEVKKPGASVKVSCKASGYTFIGYYMHWVRQAPGQGLEWMGRINPNSGETNYAQKFQGRVTMTRDTSTSTVYMELSSLRSEDTAVYYCARVRVRGVIHPGFDPWGQGTLVTVSSGGGGSGGGGSGGGGSDIQMTQSPSSLSASVGDRVTITCQASQDISNYLNWYQQKPGKAPKLLIYAASSLQSGVPSRFSGSGSGTDFTLTISSLQPEDFATYYCQQSYSTPVTFGPGTKVDIK
notes: as for B1
B14: TMPRSS4 Ab60 scFv (VH-VL) (scFv)
scFv: QVQLVQSGAEVKKPGASVKVSCKASGYSFTTYYIHWVRQAPGQGLEWMGIINPSGGSTSYAQKFQGRVTMTRDTSTSTVYMELSSLRSEDTAVYYCARGGYYGSGYNSVGYWGPGTLVTVSSGGGGSGGGGSGGGGSEIVMTQSPATLSVSPGERATLSCRASQSVSSNTLAWYQQKPGQAPRLLIYGASTRATGIPARFSGSGSGTEFTLTISSLQSEDFAVYYCQQYGSSPLTFGPGTKVDIK
notes: as for B1
B15: TMPRSS4 Ab63 scFv (VH-VL) (scFv)
scFv: QVQLVQSGAEVKKPGASVKVSCKASGYTFTGYRMHWVRQAPGQGLEWMGVINPNTGTARFAQKFQGRVTMTRDTSTSTVYMELSSLRSEDTAVYYCASVGVYWYFDLWGRGTLVTVSSGGGGSGGGGSGGGGSDIVMTQSPDSLAVSLGERATINCKSSQSVLYSSNNKNYLAWYQQKPGQPPKLLIYWASTRESGVPDRFSGSGSGTDFTLTISSLQAEDVAVYYCQQYYSAPLTFGGGTKVEIK
notes: as for B1
B16: TMPRSS4 Ab45 scFv (VH-VL) (scFv)
scFv: QVQLVQSGAEVKKPGASVKVSCKASGYTFSRWYMHWVRQAPGQGLEWMGRINPNSGGTNYAQKFQGRVTMTRDTSTSTVYMELSSLRSEDTAVYYCARVGGYGWFDPWGQGTLVTVSSGGGGSGGGGSGGGGSDIQMTQSPSSLSASVGDRVTITCQATQDIRNYLNWYQQKPGKAPKLLIYATSSLQSGVPSRFSGSGSGTDFTLTISSLQPEDFATYYCQQSYSPPYTFGQGTKLEIK
notes: as for B1
B17: TMPRSS4 Ab44 scFv (VH-VL) (scFv)
scFv: QVQLVQSGAEVKKPGASVKVSCKASGYTFRNYYIHWVRQAPGQGLEWMGRINPNSGGTNYAQKFQGRVTMTRDTSTSTVYMELSSLRSEDTAVYYCARARIAVAVSGFGYWGQGTLVTVSSGGGGSGGGGSGGGGSDIQMTQSPSSLSASVGDRVTITCQASQDISNYLNWYQQKPGKAPKLLIYAASSLHSGVPSRFSGSGSGTDFTLTISSLQPEDFATYYCQESSSFPYTFGPGTKVDIK
notes: as for B1
B18: TMPRSS4 Ab6 scFv (VH-VL) (scFv)
scFv: QVQLVQSGAEVKKPGASVKVSCKASGYTFTSYYMHWVRQAPGQGLEWLGIINPSDYTTSYAQKFQGRVTMTRDTSTSTVYMELSSLRSEDTAVYYCARVASSSWYPGDENWYFDLWGRGTLVTVSSGGGGSGSGGGGSGGGGSDIVMTQSPDSLAVSLGERATINCKSSQSVLYSSNNKNYLAWYQQKPGQPPKLLIYWASTRESGVPDRFSGSGSGTDFTLTISSLQAEDVAIYYCQQYYAIPWTFGQGTKVEIK
notes: as for B1
B19: TMPRSS4 Ab42 scFv (VH-VL) (scFv)
scFv: QVQLVQSGAEVKKPGASVKVSCKASGYSFTSHYMHWVRQAPGQGLEWMGWMNPNSGNTGYAQKFQGRVTMTRDTSTSTVYMELSSLRSEDTAVYYCARLGQQLDYWGQGTLVTVSSGGGGSGGGGSGGGGSDIQMTQSPSSLSASVGDRVTITCRASQSIRNYLNWYQQKPGKAPKLLIYEASRLQSGVPSRFSGSGSGTDFTLTISSLQPEDFATYYCQQSYSAPPTFGPGTKVDIK
notes: as for B1
B20: TMPRSS4 Ab53 scFv (VH-VL) (scFv)
scFv: QVQLVQSGAEVKKPGASVKVSCKASGYTFTRYYMHWVRQAPGQGLEWMGIINPTGGSTSYAQKFQGRVTMTRDTSTSTVYMELSSLRSEDTAVYYCARGRTWIQSSLGYWGQGTLVTVSSGGGGSGGGGSGGGGSDIQMTQSPSSLSASVGDRVTITCRASRSINRWLAWYQQKPGKAPKLLIYGASTLQSGVPSRFSGSGSGTDFTLTISSLQPEDFATYYCQQSYSTPTFGGGTKVEIK
notes: as for B1

Molecular target: T1, Human TMPRSS4 (Transmembrane protease, serine 4), wild type full length (human, UniProt Q9NRS4 1-437)
T1 construct: Type II membrane protein over-expressed on HEK293T cells (also endogenous on H1975 and LUDLU-1 cells); also called TMPRSS4 WT; HEK293T-TMPRSS4
T1 sequence (Q9NRS4 whole entry): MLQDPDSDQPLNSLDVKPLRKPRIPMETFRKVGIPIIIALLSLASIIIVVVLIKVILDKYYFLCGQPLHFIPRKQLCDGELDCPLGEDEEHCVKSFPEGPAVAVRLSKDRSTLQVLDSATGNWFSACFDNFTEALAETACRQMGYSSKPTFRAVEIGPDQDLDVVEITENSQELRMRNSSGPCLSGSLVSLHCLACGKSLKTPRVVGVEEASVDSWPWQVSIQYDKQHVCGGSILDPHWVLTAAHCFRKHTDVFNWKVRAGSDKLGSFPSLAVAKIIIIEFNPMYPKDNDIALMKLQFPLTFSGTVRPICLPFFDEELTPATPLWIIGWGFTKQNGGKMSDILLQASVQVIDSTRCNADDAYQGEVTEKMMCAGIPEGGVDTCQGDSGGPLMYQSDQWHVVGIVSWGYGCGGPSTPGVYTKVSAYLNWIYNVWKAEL
Test: flow cytometry, monoclonal phage on HEK293T-TMPRSS4 cells;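 further: bound phage detected with a PE-labelled mouse anti-M13 monoclonal antibody, read by flow cytometry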
Protocol: Monoclonal phages were prepared, screened for binding to HEK293T-TMPRSS4 cells by flow cytometry. Monoclonal phage clones were incubated with HEK293T-TMPRSS4 cells, the cells were washed and then incubated with a PE conjugated mouse anti-M13 mAb, and washed again before being analyzed by flow cytometry. The positive candidates were selected based on cytometry results, then followed by next-gen sequencing of the positive hits.

| Binder | binding result |
| --- | --- |
| B1 | binds |
| B2 | binds |
| B3 | binds |
| B4 | binds |
| B5 | binds |
| B6 | binds |
| B7 | binds |
| B8 | binds |
| B9 | binds |
| B10 | binds |
| B11 | binds |
| B12 | binds |
| B13 | binds |
| B14 | binds |
| B15 | binds |
| B16 | binds |
| B17 | binds |
| B18 | binds |
| B19 | binds |
| B20 | binds |

From patent publication US20250297255A1 (ARSENAL BIOSCIENCES, published 2025)
